For one molecule, apoptosis (Annexin V-FITC and propidium iodide staining) of CLL cells, 18 hrs, 2.5 ug antibody, apoptosis (Annexin V-FITC and propidium iodide staining) of CLL cells, 18 hrs, 5 ug antibody and apoptosis (Annexin V-FITC and propidium iodide staining) of CLL cells, 18 hrs, 7.5 ug antibody results are on record in patent US20130039917A1.

The target in this test is PRELP expressed on the cell surface of human cancer cells (human), P51888. In words: cell-based or functional assay.
Chain of PRELP expressed on the cell surface of human cancer cells (human), P51888 (P51888 21-382): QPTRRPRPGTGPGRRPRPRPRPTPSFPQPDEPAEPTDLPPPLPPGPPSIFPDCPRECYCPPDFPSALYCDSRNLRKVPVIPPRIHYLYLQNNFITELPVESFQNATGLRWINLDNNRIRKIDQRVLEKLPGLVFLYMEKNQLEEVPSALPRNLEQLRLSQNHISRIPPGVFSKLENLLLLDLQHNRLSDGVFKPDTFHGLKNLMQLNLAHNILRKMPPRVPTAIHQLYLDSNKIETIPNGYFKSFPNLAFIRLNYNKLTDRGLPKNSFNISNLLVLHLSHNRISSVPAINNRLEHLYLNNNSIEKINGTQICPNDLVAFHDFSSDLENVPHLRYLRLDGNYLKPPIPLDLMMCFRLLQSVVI

B1: anti-PRELP-SS clone 6G1-G11 (antibody, mouse IgM, V domains shown)
VH: EVKLQQSGAELVKPGASVKLSCTASGFNIKDTYMHWVKQRPEQGLEWIGRIDPANGNTKYDPKFQGKATITADTSSNTAYLQLSSLTSEDTAVYYCARSTTVVVDYWGQGTTLTVSS
VL: DILLTQTPAIKSASPGEKVTMTCSASSSISYMHWYQQKPGTSPKRWIYDTSKLASGVPARFSGSGSGTSYSLTISSMEAEDAATYYCHQRSSYPTFGAGTKLELK
On to B1, for which the apoptosis (Annexin V-FITC and propidium iodide staining) of CLL cells, 18 hrs, 2.5 ug antibody turned out to be 16.9%; the apoptosis (Annexin V-FITC and propidium iodide staining) of CLL cells, 18 hrs, 5 ug antibody was 32.2%; the apoptosis (Annexin V-FITC and propidium iodide staining) of CLL cells, 18 hrs, 7.5 ug antibody was determined as 39.2%.
